Measured values taken from patent publication US20220047684A1, “ENZYMES AND METHODS FOR PREVENTING AND TREATING […] IN ANIMALS” (Ecto Development Corporation, priority 2020, published 2022).

Columns and labels:
[1] = Serum analysis: cat serum plus permethrin +/- E3, HPLC; format: biochemical; conditions: for % permethrin control: relative to no enzyme
Experimental: The next step was to test the enzymatic hydrolysis of permethrin in feline blood (cat serum). Cat serum was acquired, permethrin was added to the serum and was assayed as a control by HPLC. After the cat serum control was analyzed three different concentrations of the enzyme were introduced to the cat serum control and then analyzed by HPLC.
Cat serum was acquired, permethrin was added to the serum and was assayed as a control by HPLC. After the cat serum control was analyzed three different concentrations of the enzyme were introduced to the cat serum control and then analyzed by HPLC.

[2] = Order of pyrethroid hydrolysis efficiency of PytH2; format: biochemical; conditions: pyrethroid substrates
Description: Activity of the enzyme: In order of hydrolysis efficiency: transpermethrin>cis-permethrin>fenpropathrin>trans-cypermethrin>cis-cypermethrin>cyhalothrin>fenvalerate>deltamethrin>bifenthrin.

[3] = Deltamethrin degradation, HPLC; format: biochemical; conditions: method as for permethrin; FIG. 5
Description: Using the method and instruments described above for permethrin, 40% of deltamethrin was degraded by pPytH2, PytH2 esterase as shown in FIG. 5.

scuds (Hyalella azteca) = experiment: Scud bioassay: scuds exposed to permethrin with or without enzyme, kill counts; format: in vivo; conditions: scuds exposed to permethrin plus degrading enzyme versus permethrin alone
Experimental: A standard of permethrin (CAS Number […]) was prepared and analyzed by HPLC as a control, then different concentrations of enzymatic solution were added to the standard to find an effective concentration (of pPytH2) needed to degrade the permethrin. After degradation was confirmed through HPLC analysis by the qualification and quantitation of permethrin hydrolysis byproducts, a bioassay was performed with crustaceans (scuds), who are also highly sensitive to pyrethroid toxicity. In the bioassay, scuds were exposed to two different environments. Permethrin was added to the first environment to get a scud kill count without the presence of the enzyme as a control and the next environment was evaluated by adding both permethrin and the degrading enzyme to the scud environment and kill counts were compared.
The next step was to test the enzymatic hydrolysis of permethrin in feline blood (cat serum). […] After the cat serum control was analyzed three different concentrations of the enzyme were introduced to the cat serum control and then analyzed by HPLC. […]
• 37 degree C. • 18 hr • Shanking 1000 rpm Transferred 20 μL rxn mix [4 μg] to 100 mL [containing 10 scuds] At time, 24 h and 48 h the ten scuds were scored: A=Alive and Moving actively BA=Barely Alive—Difficulty swimming away; only legs are moving D=Dead—Not moving at all The results of which are shown in FIGS. 8 and 9.

[4] = pNPA method esterase (carboxylesterase) activity assay of spore productions; format: biochemical; conditions: 30° C. for 30 minutes, absorbance at 400
Experimental: Each of the identified enzymes were evaluated for esterase activity assay using pNBA method described below. Determination of carboxylesterase activity of cargo enzyme in Bacillus thuringiensis spore productions or of free enzyme productions. Three active carboxylesterases cloned into pBCm (Bt EO) and pET28a (E. coli BL21) systems: pnbA (B. subtilis), PytH2 (Sphingobium wenxiniae strain), and MsE1 (Methylobacterium sp). p-Nitrophenyl acetate was the substrate in assays for esterase activity. The hydrolysis of p-nitrophenyl acetate releases p-nitrophenol and acetate, and while p-nitrophenyl acetate is colorless, p-nitrophenol is yellow.
6 mg p-Nitrophenyl acetate (pNPA, CAS #830-03-5, MW: 181.1 g/mol) was weighed and dissolved in 1 mL methanol (CAS #67-56-1, MW: 32.04 g/mol). Stored at −20° C. and kept on ice when preparing reactions.
8.0 g sodium chloride (NaCl, CAS #7647-14-5, MW: 58.44 g/mol), 1.44 g sodium phosphate dibasic was dissolved (Na2HPO4, CAS #7558-79-4, MW: 141.96 g/mol), and 0.24 g potassium phosphate monobasic (KH2PO4, CAS #7778-77-0, 136.09 g/mol) in 800 mL DI H20, then adjust pH to 7.4 using hydrochloric acid (HCl, CAS #7647-01-0, MW: 36.46 g/mol). Make 100 mL aliquots and autoclave.
Esterase from rabbit liver (CAS #9016-18-6, Sigma E0887-powder). Store at −20° C. To prepare a stock dissolve 1 mg in 1 mL PBS, kept on ice when using.
Up to 1 mL spore production was pelleted up for 5 min at max speed. Supernatant was discarded without disturbing spore pellet and suspend pellet in ice-cold PBS. Spores kept suspended on ice until use.
The assay was run at 30° C. for 30 minutes. The assay was shaken continuously. Activity was read on (A) 400 BioTek Synergy/HTX microplate reader was used. The results of pNPA hydrolysis are shown in Table 3 depicting carboxylesterase enzyme activity for each of the five strains using pNPA hydrolysis.

[5] = Cypermethrin degradation, HPLC; format: biochemical; conditions: 50 ppm cypermethrin in 1 mL PBS with 10 μL pPytH2; 15 minutes at 37 C, 300 rpm
Experimental: 50 ppm of cypermethrin was placed in 1 mL PBS with 10 μL pPytH2, PytH2 and reacted for 15 minutes at 37 C with shaking at 300 rpm. HPLC was run on the sample after being diluted 1:1 MeOH using instrument method described above for permethrin for 10 minutes.

[6] = Fenpropathrin degradation, HPLC; format: biochemical; conditions: 20 ppm fenpropathrin; 15 minutes at 37 C with shaking
Experimental: 1000 ppm fenpropathrin was diluted to 5 point curve which was able to detect on HPLC the gradient of 20% water and 80% using the instrument method described above for permethrin. 20 ppm of […] was placed in […] with 10 μL […] and reacted for 15 minutes at 37 C with shaking. HPLC was run on the sample after being diluted 1:1 MeOH using instrument method described above for permethrin. A 90% degradation of fenpropathrin was detected with PytH2.

B1: E3: carboxylesterase PytH2 (pytH) from Sphingobium wenxiniae, amino acid SEQ. ID No. 3, DNA SEQ. ID No. 6; recombinant, His-tagged (protein, listed as Sphingobium wenxiniae)
chain: MTVTDIILIHGALNRGACYDAVVPLLEARGYRVHAPDLTGHTPGDGGHLSVVDMEHYTRPVADILARAEGQSILLGHSLGGASISWLAQHHYDKVAGLIYLTAVLTAPGITPETFVLPGEPNRGTPHALDLIQPVDEGRGLQADFSRLERLREVFMGDYPGEGMPPAEQFIQTQSTVPFGTPNPMEGRALEIPRLYEALDDVVIPIAVQRQMQKEFPGPVAVVSLPASHAPYYSMPERLAEAIADFADAPAEYRQTATKAGPDRPAGADGGRADRADLP
modifications: His tag
notes: ID No. 6; recombinant, His-tagged
With B1 the “Cis-permethrin (HPLC area)” value ([1]; 2.5 μL E3, 15 min 37 degree C.) was 1624.5, the “Total permethrin (area)” value ([1]; 2.5 μL E3, 15 min 37 degree C.) was 1624.5 area and the “Total permethrin (expected 2 ppm)” value ([1]; 2.5 μL E3, 15 min 37 degree C.) was 0.098 ppm. The “Trans-permethrin (HPLC area)” value ([1]; 2.5 μL E3, 15 min 37 degree C.) was 0, the “% permethrin control” value ([1]; 2.5 μL E3, 15 min 37 degree C.) was 7.0% and the “Cis-permethrin (HPLC area)” value ([1]; 10 μL E3, 15 min 37 degree C.) was 0. For the same molecule, the “Total permethrin (area)” value ([1]; 10 μL E3, 15 min 37 degree C.) was 0 area, the “Total permethrin (expected 2 ppm)” value ([1]; 10 μL E3, 15 min 37 degree C.) was 0.000 ppm and the “Trans-permethrin (HPLC area)” value ([1]; 10 μL E3, 15 min 37 degree C.) was 0. The “% permethrin control” value ([1]; 10 μL E3, 15 min 37 degree C.) was 0.0%, the “% permethrin control” value ([1]; 10 μL E3, 15 min 37 degree C., listed as PytH2) was 0.0% and the “Cis-permethrin (HPLC area)” value ([1]; 30 μL E3, 15 min 37 degree C.) was 0. The “Total permethrin (area)” value ([1]; 30 μL E3, 15 min 37 degree C.) was 0 area, the “Total permethrin (expected 2 ppm)” value ([1]; 30 μL E3, 15 min 37 degree C.) was 0.000 ppm and the “Trans-permethrin (HPLC area)” value ([1]; 30 μL E3, 15 min 37 degree C.) was 0. For the same molecule, the “% permethrin control” value ([1]; 30 μL E3, 15 min 37 degree C.) was 0.0%, the “order of hydrolysis efficiency” value [2] was “transpermethrin>cis-permethrin>fenpropathrin>trans-cypermethrin>cis-cypermethrin>cyhalothrin>fenvalerate>deltamethrin>bifenthrin” and the deltamethrin degraded [3] was 40%. The “effect on permethrin in scud bioassay” value (scuds (Hyalella azteca)) was “hydrolyzed the toxic permethrin molecule and degraded permethrin”, the pNPA hydrolysis [4] was 26.3 ± 0.9 nmol pNPA/min/1E+8 spores and the Cypermethrin degradation rate [5] was 12.69 nmol/min/μg pPytH2. The degradation of fenpropathrin [6] was 90%.
